Consider one molecule from publication PMC6774866 (Molecular immunology, 2019).

Test [1] concerns the target UBC6e(1-197), randomly biotinylated with biotin-NHS (Mus musculus, UniProt Q9JJZ4, biotin on exposed Lys residues (random, biotin-N-hydroxysuccinimide ester)). Kind of test: BLI. Background: Biolayer interferometry detects binding as a change in optical thickness at a sensor tip.
The target in test [2] is UBC6e(1-197)-LPETGGG-biotin (Mus musculus, UniProt Q9JJZ4, biotin at the C-terminus (LPETGGG-biotin, by sortagging)). Briefly: BLI.
The target in test [3] is T1, Biotinylated 14-residue UBC6e peptide (Mus musculus (identical in human), UniProt Q9JJZ4, also: biotin, position not given here).
T1 chain: QADQEAKELARQIS-NH2
Briefly: BLI.

For another test, the target named is T2, eGFP-UBC6e(168-186) (Mus musculus (printed stretch matches …, UniProt Q9JJZ4, chimera, also: joined to eGFP)).
T2 chain: GSSQADQEAKELARQISFK-NH2
Kind of test: pull-down.

Test [4] deals with T3, Arl3 sortagged with the UBC6e(168-186) tag (Mus musculus (UBC6e tag), UniProt Q9JJZ4, chimera, also: sortagged to Arl3).
T3 chain: GSSQADQEAKELARQISFK-NH2
Kind of test: pull-down.

Where no end group is shown, it is not given here.

Sequence of UBC6e(1-197), randomly biotinylated with biotin-NHS (Q9JJZ4 1-197): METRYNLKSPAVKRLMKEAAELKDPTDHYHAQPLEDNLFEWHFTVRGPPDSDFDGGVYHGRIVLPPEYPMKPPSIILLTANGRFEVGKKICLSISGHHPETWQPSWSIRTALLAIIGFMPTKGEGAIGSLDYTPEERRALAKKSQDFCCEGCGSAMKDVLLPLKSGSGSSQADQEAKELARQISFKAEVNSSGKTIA
Sequence of UBC6e(1-197)-LPETGGG-biotin (Q9JJZ4 1-197): as above

B1: VHH05 (VHH)
VHH: QVQLQESGGGLVQPGGSLRLSCAASGFVFENSAMAWYRQAPGKERELIAVIGTTFIKLAESVKGRFTISRDNAKSTVYLQMNNLKPEDTAVYYCSKSGAYWGQGTQVTVSS
For the molecule B1, the dissociation constant Kd (as a rule, the constant that tells how readily two partners part at equilibrium) in test [1] is 14 nM; in test [2] it was 16 nM; in test [3], ~0.15 nM. Also, the binding result (in the test with eGFP-UBC6e(168-186); in test [4]) was “binds” throughout.
